T1: FZD3 CRD (Homo sapiens, UniProt Q9NPG1)
T1 construct: CRD of FZD1, FZD2, FZD3, FZD4, FZD5, FZD6, FZD7, FZD8, FZD9 or FZD10; GPI anchor signal (C); expressed in transfected cells; host or cells: CHO cells, lentiviral pLenti-puro
T1 sequence (Q9NPG1 23-136 limits assumed): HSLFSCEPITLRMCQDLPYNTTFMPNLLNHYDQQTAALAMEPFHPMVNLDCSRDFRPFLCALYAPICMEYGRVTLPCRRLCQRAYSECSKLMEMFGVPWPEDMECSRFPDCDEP

T2: FZD4 CRD (Homo sapiens, UniProt Q9ULV1)
T2 construct: E42-V167; GPI anchor signal (C); expressed in transfected cells; host or cells: CHO cells, lentiviral pLenti-puro
T2 sequence (Q9ULV1 42-167): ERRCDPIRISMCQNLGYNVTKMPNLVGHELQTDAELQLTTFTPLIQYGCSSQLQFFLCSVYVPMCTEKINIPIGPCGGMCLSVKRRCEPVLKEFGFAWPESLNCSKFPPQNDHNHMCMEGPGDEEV

T3: FZD5 CRD (Homo sapiens, UniProt Q13467)
T3 construct: K29-T156; GPI anchor signal (C); expressed in transfected cells; host or cells: CHO cells, lentiviral pLenti-puro
T3 sequence (Q13467 29-156): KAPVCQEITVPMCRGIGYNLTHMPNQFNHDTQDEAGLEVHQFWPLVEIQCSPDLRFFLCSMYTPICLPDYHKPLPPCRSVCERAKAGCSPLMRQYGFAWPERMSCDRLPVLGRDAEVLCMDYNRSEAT

T4: FZD6 CRD (Homo sapiens, UniProt O60353)
T4 construct: S20-P146; GPI anchor signal (C); expressed in transfected cells; host or cells: CHO cells, lentiviral pLenti-puro
T4 sequence (O60353 20-146): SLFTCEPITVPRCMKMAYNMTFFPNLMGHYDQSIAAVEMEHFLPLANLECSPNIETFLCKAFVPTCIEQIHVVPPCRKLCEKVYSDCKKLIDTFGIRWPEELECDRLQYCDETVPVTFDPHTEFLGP

B1: Fab-2923: anti-FZD5 Fab with antibody variable region Fv-2923; CDR SEQ ID NOs: 35, 36, 62, 100, 138, 162 (antibody, V domains shown)
VH: EVQLVESGGGLVQPGGSLRLSCAASGFNLYYYYMHWVRQAPGKGLEWVASIYSSSGSTSYADSVKGRFTISADTSKNTAYLQMNSLRAEDTAVYYCARGAMDYWGQGTLVTVSS
VL: DIQMTQSPSSLSASVGDRVTITCRASQSVSSAVAWYQQKPGKAPKLLIYSASSLYSGVPSRFSGSRSGTDFTLTISSLQPEDFATYYCQQWYGYSALITFGQGTKVEIK
B2: Fab-2924: anti-FZD5 Fab with antibody variable region Fv-2924; CDR SEQ ID NOs: 35, 36, 63, 101, 139, 153 (antibody, V domains shown)
VH: EVQLVESGGGLVQPGGSLRLSCAASGFNISYSYIHWVRQAPGKGLEWVASIYSYYSSTSYADSVKGRFTISADTSKNTAYLQMNSLRAEDTAVYYCARGALDYWGQGTLVTVSS
VL: DIQMTQSPSSLSASVGDRVTITCRASQSVSSAVAWYQQKPGKAPKLLIYSASSLYSGVPSRFSGSRSGTDFTLTISSLQPEDFATYYCQQWYSGHSLITFGQGTKVEIK
B3: Fab-2929: anti-FZD5 Fab with antibody variable region Fv-2929; CDR SEQ ID NOs: 35, 36, 68, 106, 144, 162 (antibody, V domains shown)
VH: EVQLVESGGGLVQPGGSLRLSCAASGFNISYYYIHWVRQAPGKGLEWVASIYPSSSSTSYADSVKGRFTISADTSKNTAYLQMNSLRAEDTAVYYCARGAMDYWGQGTLVTVSS
VL: DIQMTQSPSSLSASVGDRVTITCRASQSVSSAVAWYQQKPGKAPKLLIYSASSLYSGVPSRFSGSRSGTDFTLTISSLQPEDFATYYCQQWYSSYGLITFGQGTKVEIK
B4: Fab-2927: anti-FZD5 Fab with antibody variable region Fv-2927; CDR SEQ ID NOs: 35, 36, 66, 104, 142, 174 (antibody, V domains shown)
VH: EVQLVESGGGLVQPGGSLRLSCAASGFNIYYSSMHWVRQAPGKGLEWVASIYPSYGYTSYADSVKGRFTISADTSKNTAYLQMNSLRAEDTAVYYCARYGYYGFDYWGQGTLVTVSS
VL: DIQMTQSPSSLSASVGDRVTITCRASQSVSSAVAWYQQKPGKAPKLLIYSASSLYSGVPSRFSGSRSGTDFTLTISSLQPEDFATYYCQQWGSHGYLITFGQGTKVEIK
B5: Fab-2925: anti-FZD5 Fab with antibody variable region Fv-2925; CDR SEQ ID NOs: 35, 36, 64, 102, 140, 172 (antibody, V domains shown)
VH: EVQLVESGGGLVQPGGSLRLSCAASGFNLSYSSMHWVRQAPGKGLEWVASIYPSYGSTYYADSVKGRFTISADTSKNTAYLQMNSLRAEDTAVYYCARYGYFGLDYWGQGTLVTVSS
VL: DIQMTQSPSSLSASVGDRVTITCRASQSVSSAVAWYQQKPGKAPKLLIYSASSLYSGVPSRFSGSRSGTDFTLTISSLQPEDFATYYCQQAWVYASLFTFGQGTKVEIK
B6: Fab-2928: anti-FZD5 Fab with antibody variable region Fv-2928; CDR SEQ ID NOs: 35, 36, 67, 105, 143, 175 (antibody, V domains shown)
VH: EVQLVESGGGLVQPGGSLRLSCAASGFNISYSSIHWVRQAPGKGLEWVASIYPSYSSTYYADSVKGRFTISADTSKNTAYLQMNSLRAEDTAVYYCARYYAMDYWGQGTLVTVSS
VL: DIQMTQSPSSLSASVGDRVTITCRASQSVSSAVAWYQQKPGKAPKLLIYSASSLYSGVPSRFSGSRSGTDFTLTISSLQPEDFATYYCQQAFYYPITFGQGTKVEIK

Tests used:
FZD1 CRD = molecular target: T5, FZD1 CRD (Homo sapiens, UniProt Q9UP38); test: Immunofluorescence of anti-FZD5 Fab binding to CHO cells overexpressing Frizzled CRD; design: key: −: no binding; +: very weak binder; ++: weak binder; +++: good binder; ++++: very good binder
T5 construct: D112-P238; GPI anchor signal (C); expressed in transfected cells; host or cells: CHO cells, lentiviral pLenti-puro
Method in brief: (§1)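 CHO cell lines each displaying a myc-tagged Frizzled CRD on the plasma membrane via GPI anchor. Recombinant anti-FZD5 Fab binding detected by immunofluorescence and flow cytometry.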

FZD3 CRD = molecular target: T1, FZD3 CRD; test: as above; design: key: −: no binding; +: very weak binder; ++: weak binder; +++: good binder; ++++: very good binder
Method in brief: as §1

FZD4 CRD = molecular target: T2, FZD4 CRD; test: as above; design: key: −: no binding; +: very weak binder; ++: weak binder; +++: good binder; ++++: very good binder
Method in brief: as §1

FZD5 CRD = molecular target: T3, FZD5 CRD; test: as above; design: key: −: no binding; +: very weak binder; ++: weak binder; +++: good binder; ++++: very good binder
Method in brief: as §1

FZD6 CRD = molecular target: T4, FZD6 CRD; test: as above; design: key: −: no binding; +: very weak binder; ++: weak binder; +++: good binder; ++++: very good binder
Method in brief: as §1

ASPC-1 cells [1] = test: Effect of anti-FZD5 Fabs on proliferation of pancreatic cancer cell lines (percent growth inhibition); format: cell-based, human; conditions: Fab 10 μg/ml
Experimental: (§2) The effect of presently disclosed anti-FZD5 Fabs on proliferation of RNF43 loss-of-function mutant pancreatic cancer cell lines HPAFII, PATU8988S and ASPC-1; and on pancreatic cancer cell line RWP1, was tested at […] and 10 μg/ml.

HPAFII cells = test: as above; format: cell-based, human; conditions: for percent growth inhibition, HPAFII 2 μg/ml: Fab 2 μg/ml; for percent growth inhibition, HPAFII 10 μg/ml: Fab 10 μg/ml
Experimental: as §2

PATU8988S cells = test: as above; format: cell-based, human; conditions: Fab 10 μg/ml
Experimental: as §2

RWP1 cells [2] = test: as above; format: cell-based, human; conditions: Fab 10 μg/ml
Experimental: as §2

ASPC-1 cells [3] = test: as above; format: cell-based, human; conditions: Fab 2 μg/ml
RWP1 cells [4] = test: as above; format: cell-based, human; conditions: Fab 2 μg/ml

Row | Molecule | Immunofluorescence binding, Frizzled CRD overexpressed on CHO cells: FZD1 (FZD1 CRD) | Immunofluorescence binding, Frizzled CRD overexpressed on CHO cells: FZD3 (FZD3 CRD) | Immunofluorescence binding, Frizzled CRD overexpressed on CHO cells: FZD4 (FZD4 CRD) | Immunofluorescence binding, Frizzled CRD overexpressed on CHO cells: FZD5 (FZD5 CRD) | Immunofluorescence binding, Frizzled CRD overexpressed on CHO cells: FZD6 (FZD6 CRD) | percent growth inhibition, ASPC-1 10 μg/ml (ASPC-1 cells [1]) [%] | percent growth inhibition, HPAFII 2 μg/ml (HPAFII cells) [%] | percent growth inhibition, HPAFII 10 μg/ml (HPAFII cells) [%] | percent growth inhibition, PATU8988s 10 μg/ml (PATU8988S cells) [%] | percent growth inhibition, RWP1 10 μg/ml (RWP1 cells [2]) [%] | percent growth inhibition, ASPC-1 2 μg/ml (ASPC-1 cells [3]) [%] | percent growth inhibition, RWP1 2 μg/ml (RWP1 cells [4]) [%]
1 | B1 | − | − | − | ++++ | − | 34.00 | 15.14 | 18.17 | −19.05 | 40.29 | 35.27 | 35.90
2 | B2 | − | − | − | ++++ | − | 16.29 | −10.43 | −5.35 | −21.08 | 48.95 | 8.55 | 42.76
3 | B3 | − | − | − | ++++ | − | 41.25 | 20.20 | 33.42 | −27.58 | 2.21 | 41.68 | 0.41
4 | B4 | +++ | − | − | ++++ | − | 31.00 | 6.46 | −7.63 | −23.95 | 70.38 | 12.47 | 46.02
5 | B5 | ++ | − | − | ++++ | − | −3.44 | −11.24 | −17.38 | −22.86 | 33.53 | −0.26 | 30.69
6 | B6 | − | − | − | ++++ | − | 6.27 | −17.90 | −25.51 | −30.22 | 32.47 | 2.33 | −8.19

— US20210253718A1, “FRIZZLED5 PROTEIN-BINDING AGENTS” (Modmab Therapeutics Corporation, priority 2016, published 2021)
